Substitutions are numbered along the chain they refer to. “And” between values parts separate entries of the source, which are not always exact repeats. Identical values can stand only once.

In experiment [1] the target is T1, StrepII-CERTL^P (hyperphosphorylated human CERTL) (human, UniProt Q9Y5P4-1 1-624, hyperphosphorylated (CERTL^P); sites not given).
T1 construct: ceramide transport protein CERT, longer cytoplasmic isoform CERTL (with exon 11), human, UniProt Q9Y5P4-1; not shown: StrepII, N-terminal, kept
T1 sequence (looked up): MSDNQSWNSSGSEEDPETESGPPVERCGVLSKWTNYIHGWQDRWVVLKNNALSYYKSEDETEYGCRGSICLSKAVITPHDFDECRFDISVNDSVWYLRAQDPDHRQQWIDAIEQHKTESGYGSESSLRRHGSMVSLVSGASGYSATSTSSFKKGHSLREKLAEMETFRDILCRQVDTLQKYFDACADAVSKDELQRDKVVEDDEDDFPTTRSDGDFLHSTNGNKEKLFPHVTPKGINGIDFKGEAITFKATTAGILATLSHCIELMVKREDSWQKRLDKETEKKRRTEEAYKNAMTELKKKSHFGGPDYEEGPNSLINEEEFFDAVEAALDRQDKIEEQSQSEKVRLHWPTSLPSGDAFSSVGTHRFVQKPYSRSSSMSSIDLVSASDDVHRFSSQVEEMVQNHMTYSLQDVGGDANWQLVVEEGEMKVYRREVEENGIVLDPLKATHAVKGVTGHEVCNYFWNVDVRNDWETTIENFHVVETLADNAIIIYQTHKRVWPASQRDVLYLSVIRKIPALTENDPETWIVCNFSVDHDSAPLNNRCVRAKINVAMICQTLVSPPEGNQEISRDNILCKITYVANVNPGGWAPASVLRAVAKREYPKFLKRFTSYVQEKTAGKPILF
In words: ITC; CERTL forms in the syringe titrated into pUL21 forms in the cell; 25 °C; 20 mM Tris pH 8.5, 500 mM NaCl, 0.5 mM TCEP; one-site binding model; single titrations. The following applies: both partners purified. (Isothermal titration calorimetry measures the heat released or taken up as one component is titrated into another.)

Experiment [2] deals with T2, StrepII-CERTL^S132A (constitutively hypophosphorylated human CERTL) (human, UniProt Q9Y5P4-1 1-624, S132A).
T2 construct: ceramide transport protein CERT, longer cytoplasmic isoform CERTL, human, UniProt Q9Y5P4-1, with S132A; source: Freestyle 293F cells, stably transfected, doxycycline-induced, purified (StrepTrap, SEC); not shown: StrepII, N-terminal, kept
T2 sequence (looked up): T1 sequence (looked up) with S132A
The description is as above. The note with it: both partners purified.

A further experiment concerns the target T3, StrepII-CERT^P (UniProt Q9Y5P4-2 1-598, hyperphosphorylated (sites not given)).
T3 sequence (looked up): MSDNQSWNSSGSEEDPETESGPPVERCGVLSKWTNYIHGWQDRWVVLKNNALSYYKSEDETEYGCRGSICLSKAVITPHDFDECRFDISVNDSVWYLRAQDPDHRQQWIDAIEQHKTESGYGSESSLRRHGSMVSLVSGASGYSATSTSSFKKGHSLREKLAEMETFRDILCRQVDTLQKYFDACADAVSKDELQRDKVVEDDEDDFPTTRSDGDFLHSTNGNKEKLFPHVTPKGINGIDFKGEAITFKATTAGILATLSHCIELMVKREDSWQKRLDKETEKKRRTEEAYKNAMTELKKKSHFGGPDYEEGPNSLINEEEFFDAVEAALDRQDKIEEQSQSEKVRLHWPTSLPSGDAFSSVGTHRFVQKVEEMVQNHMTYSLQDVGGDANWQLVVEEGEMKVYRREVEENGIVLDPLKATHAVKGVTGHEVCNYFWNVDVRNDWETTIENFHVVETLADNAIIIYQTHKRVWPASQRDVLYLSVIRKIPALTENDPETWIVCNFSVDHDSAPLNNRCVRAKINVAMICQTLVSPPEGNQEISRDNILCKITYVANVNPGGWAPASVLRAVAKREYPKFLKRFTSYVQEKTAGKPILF
Briefly: cell-based or functional assay.

For the next experiment, the target named is T4, StrepII-CERTL^S132A (human, UniProt Q9Y5P4-1 1-624, S132A, hypophosphorylated).
T4 construct: human CERTL, UniProt Q9Y5P4-1, synthetic gene, S132A; Trimer by SEC-MALS (observed 199.2 kDa); also called constitutively hypophosphorylated form of CERTL; source: Freestyle 293F, stably transfected, doxycycline-induced, purified (StrepTrap HP, Superose 6 SEC); not shown: StrepII, N-terminal, kept
T4 sequence (looked up): T1 sequence (looked up) with S132A
Briefly: ITC; 25 °C; 20 mM Tris pH 8.5, 500 mM NaCl, 0.5 mM TCEP; CERTL forms in the syringe titrated into pUL21 forms in the cell; one-site binding model. The note with it: both partners purified.

Experiment [3] deals with T5, StrepII-CERTL^P (hyperphosphorylated StrepII-tagged CERTL) (human, UniProt Q9Y5P4-1 1-624, hyperphosphorylated (sites not given)).
T5 construct: human CERTL, UniProt Q9Y5P4-1, synthetic gene; Trimer by SEC-MALS (observed 184.3 kDa, expected 215.7 kDa); not shown: StrepII, N-terminal, kept
T5 sequence (looked up): T1 sequence (looked up)
The experiment is described as above. The following applies: both partners purified.

The next experiment deals with T6, H6-miniCERTL (human, UniProt Q9Y5P4-1 20-624, residues 20–131 plus 351–624 (MR residues 132 to 350 excluded)).
T6 construct: human CERTL, UniProt Q9Y5P4-1, residues 20-131 plus 351-624 (PH and STARTL domains joined by a retained 23 amino acid stretch of the middle region); Cloned into pOPTH; Monomer by SEC-MALS; source: E. coli T7 Express lysY/Iq, purified (Ni-NTA, SEC); not shown: MAH6, N-terminal, kept
T6 sequence (looked up): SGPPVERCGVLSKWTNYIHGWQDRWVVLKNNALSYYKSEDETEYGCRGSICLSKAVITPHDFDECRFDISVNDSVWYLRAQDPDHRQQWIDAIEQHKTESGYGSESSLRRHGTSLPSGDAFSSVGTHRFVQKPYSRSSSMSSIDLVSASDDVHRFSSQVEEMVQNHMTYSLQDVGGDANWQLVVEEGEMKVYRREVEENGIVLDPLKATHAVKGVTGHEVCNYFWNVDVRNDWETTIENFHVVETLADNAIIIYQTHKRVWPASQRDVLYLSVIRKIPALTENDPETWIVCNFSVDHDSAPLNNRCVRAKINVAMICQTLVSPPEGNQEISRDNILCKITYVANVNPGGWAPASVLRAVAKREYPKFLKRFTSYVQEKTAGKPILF
Described as above. The note with it: both partners purified.

B1: pUL21-H6 (HSV-1 pUL21) (natural protein)
chain: MELSYATTMHYRDVVFYVTTDRNRAYFVCGGCVYSVGRPCASQPGEIAKFGLVVRGTGPDDRVVANYVRSELRQRGLQDVRPIGEDEVFLDSVCLLNPNVSSELDVINTNDVEVLDECLAEYCTSLRTSPGVLISGLRVRAQDRIIELFEHPTIVNVSSHFVYTPSPYVFALAQAHLPRLPSSLEALVSGLFDGIPAPRQPLDAHNPRTDVVITGRRAPRPIAGSGAGSGGAGAKRATVSEFVQVKHIDRVGPAGVSPAPPPNNTDSSSLVPGAQDSAPPGPTLRELWWVFYAADRALEEPRADSGLTREEVRAVRGFREQAWKLFGSAGAPRAFIGAALGLSPLQKLAVYYYIIHRERRLSPFPALVRLVGRYTQRHGLYVPRPDDPVLADAINGLFRDALAAGTTAEQLLMFDLLPPKDVPVGSDVQADSTALLRFIESQRLAVPGGVISPEHVAYLGAFLSVLYAGRGRMSAATHTARLTGVTSLVLAVGDVDRLSAFDRGAAGAASRTRAAGYLDVLLTVRLARSQHGQSV
notes: tegument protein pUL21 of herpes simplex virus 1, UniProt F8RG07; source: E. coli T7 Express lysY/Iq, purified (Ni-NTA, SEC); not shown: His6, C-terminal, kept
As a reminder, the Kd is the constant that tells how readily two partners part at equilibrium. In the case of B1, the Kd in experiment [1] was 1080 nM and 554 nM and 684 nM; in experiment [2] it was 460 nM and 824 nM.

B2: pUL21-H6 (natural protein)
chain: B1 chain
notes: HSV-1 pUL21, UniProt F8RG07; some paragraphs print H6-pUL21; also called H6-pUL21; WT pUL21; source: E. coli T7 Express lysY/Iq, purified (Ni-NTA, SEC); not shown: His6, C-terminal, kept
B2: the “EC50 of pUL21-H6 (62.5 nM to 4 μM) for accelerating GST-PP1-mediated dephosphorylation of 0.5 μM CERT^P in vitro, all proteins purified, 25 nM GST-PP1γ, 30 min at 30 °C” value in the experiment with StrepII-CERT^P stood at 0.491 μM. Moreover, the Kd amounted to 642 nM in the experiment with StrepII-CERTL^S132A and 773 nM in experiment [3].

B3: H6-pUL21C (domain or fragment)
chain: QDSAPPGPTLRELWWVFYAADRALEEPRADSGLTREEVRAVRGFREQAWKLFGSAGAPRAFIGAALGLSPLQKLAVYYYIIHRERRLSPFPALVRLVGRYTQRHGLYVPRPDDPVLADAINGLFRDALAAGTTAEQLLMFDLLPPKDVPVGSDVQADSTALLRFIESQRLAVPGGVISPEHVAYLGAFLSVLYAGRGRMSAATHTARLTGVTSLVLAVGDVDRLSAFDRGAAGAASRTRAAGYLDVLLTVRLARSQHGQSV
notes: HSV-1 pUL21 C-terminal domain, amino acids 275-535, UniProt F8RG07; Cloned in pOPTH; Monomer by SEC-MALS and SAXS; also called C-terminal domain of pUL21; source: E. coli T7 Express lysY/Iq, purified (Ni-NTA, SEC); not shown: MAH6, N-terminal, kept
For the molecule B3, in the experiment with H6-miniCERTL, the Kd was found to be 4320 nM.
